Source: patent US20220288223

Assays:
[1] = system: RACPP with substrate PLGC(me)AG
[2] = system: RACPP with substrate TIAHLA
[3] = system: RACPP with substrate YGRAAA
[4] = system: RACPP with substrate GVAYSGA
[5] = system: RACPP with substrate TGRAAA
[6] = system: RACPP with substrate RLQLK(Ac)L
[7] = system: RACPP with substrate PLGLEEA

Sequence of MMP-9 (chain, as listed by the source): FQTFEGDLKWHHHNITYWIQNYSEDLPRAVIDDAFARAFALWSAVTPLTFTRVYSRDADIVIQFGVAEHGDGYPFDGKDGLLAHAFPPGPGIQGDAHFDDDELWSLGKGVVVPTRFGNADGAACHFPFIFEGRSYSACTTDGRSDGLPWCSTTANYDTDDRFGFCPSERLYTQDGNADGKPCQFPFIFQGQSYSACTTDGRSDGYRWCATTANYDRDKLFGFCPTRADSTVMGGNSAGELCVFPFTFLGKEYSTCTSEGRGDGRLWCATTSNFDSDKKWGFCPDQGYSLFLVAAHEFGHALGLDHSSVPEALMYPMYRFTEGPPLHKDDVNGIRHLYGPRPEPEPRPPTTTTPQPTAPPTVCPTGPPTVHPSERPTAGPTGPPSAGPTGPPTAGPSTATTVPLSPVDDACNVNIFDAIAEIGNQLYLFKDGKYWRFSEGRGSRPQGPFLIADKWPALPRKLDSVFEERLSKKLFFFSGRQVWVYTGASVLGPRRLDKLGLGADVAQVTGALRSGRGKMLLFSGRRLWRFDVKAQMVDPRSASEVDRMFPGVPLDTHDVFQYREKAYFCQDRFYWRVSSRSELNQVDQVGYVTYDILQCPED

Row | Substance | Kcat/Km [1] | Kcat/Km [2] | Kcat/Km [3] | Kcat/Km [4] | Kcat/Km [5] | Kcat/Km [6] | Kcat/Km [7]
1 | Elastase | 4000 | 18200 | 943 | 4550 | 349 | 13400 | 
2 | MMP-9 | 13500 |  |  |  |  |  | 1480
